The values that follow come from US20190185898A1 (UNIVERSITY OF MARYLAND BALTIMORE COUNTY, published 2019).

The target of the assay is T1, core-fucosylated complex type glycoform of rituximab (30).
T1 construct: Obtained from 28 by AlfC E274A catalysed core fucosylation; also called fucosylated rituximab (30); core fucosylated antibody (30)
Kind of assay: ELISA, glycoprotein coated, AAL-biotin in serial dilution. On the procedure:
The glycoprotein (20, 21, 28 or 30) (10 μg/ml) in a phosphate buffer (pH 7.5) was coated onto a 96-well plate (UltraCruz®) at 4° C. for overnight. After wash twice, 2% bovine serum albumin in PBS containing Tween® 20 (PBST buffer) was added to block the plate for 2 h. Subsequently, after washed twice again, a serial dilution of AAL-biotin ranging from 0.1 μM to 1000 μM in PBST buffer was added and the plate was incubated for 1 h. After washing, peroxidase streptavidin (2 μg/mL) (Jackson ImmunoResearch Inc.) was added and incubated for 1 h. Finally, 100 μL of substrate, 3, 3′, 5, 5′-tetramethylbenzidine was added for signal development. The reaction was stopped by the adding 100 μL of 20% sulfuric acid (v/v). The absorbance at 450 nm was measured using SpectraMax M5 microplate reader (Molecular Devices). For the binding of the N-glycans, the Fmoc-labeled N-glycans released from 20, 21, 28 and 30 (1 μg/ml) were coated on the plate and the ELISA analysis was performed in the same manner as that of the glycoproteins.
A general note: ELISA stands for enzyme-linked immunosorbent assay.

B1: Aleuria aurantia lectin (AAL) (other, UniProt P18891 2-313, looked up)
chain: PTEFLYTSKIAAISWAATGGRQQRVYFQDLNGKIREAQRGGDNPWTGGSSQNVIGEAKLFSPLAAVTWKSAQGIQIRVYCVNKDNILSEFVYDGSKWITGQLGSVGVKVGSNSKLAALQWGGSESAPPNIRVYYQKSNGSGSSIHEYVWSGKWTAGASFGSTVPGTGIGATAIGPGRLRIYYQATDNKIREHCWDSNSWYVGGFSASASAGVSIAAISWGSTPNIRVYWQKGREELYEAAYGGSWNTPGQIKDASRPTPSLPDTFIAANSSGNIDISVFFQASGVSLQQWQWISGKGWSIGAVVPTGTPAGW
modifications: biotin label (AAL-biotin), site not stated
notes: Lectin that recognises the α1,6-fucosylated glycan; Added in serial dilution (0.1 µM to 1000 µM) to the coated glycoprotein; also called AAL-biotin
Broadly, the EC50 is the midpoint of the concentration-response curve. Read a low EC50 as greater potency. With B1, the EC50 amounted to 15 µM and the “fold higher affinity than core-fucosylated RNase B (21)” value is about 17 fold.
